# In patent publication US20240360216A1 (NOVOPROTEIN SCIENTIFIC, published 2024):
# T1: monkey CD3E protein (Examples 4.2 and 7) (monkey, UniProt Q95LI5 22-117)
# T1 construct: extracellular domain
# T1 sequence (looked up): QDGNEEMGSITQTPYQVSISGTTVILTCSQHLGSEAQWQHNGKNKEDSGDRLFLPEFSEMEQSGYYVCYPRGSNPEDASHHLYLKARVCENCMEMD
# B1: CD3 full-length antibody CQ54 (antibody, V domains shown)
# VH: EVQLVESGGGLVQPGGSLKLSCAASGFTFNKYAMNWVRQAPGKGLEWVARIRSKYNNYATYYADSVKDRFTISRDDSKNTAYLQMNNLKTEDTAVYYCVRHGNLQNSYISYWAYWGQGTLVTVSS
# VL: QTVVTQEPSLTVSPGGTVTLTCGSSTGPVTGGNYPNWVQQKPGQAPRGLIGGTKFLAPGTPARFSGSLLGGKAALTLSGVQPEDEAEYYCVLWESNRWVFGGGTKLTVLT
# notes: Includes huVH5 and huVL5
# B2: OKT3 antibody (control antibody) (antibody, V domains shown)
# VH: not shown
# VL: QIVLTQSPAIMSASPGEKVTMTCSASSSVSYMNWYQQKSGTSPKRWIYDTSKLASGVPAHFRGSGSGTSYSLTISGMEAEDAATYYCQQWSSNPFTFGSGTKLEINR
# Assays:
# [1] = target: T2, human CD3E protein (Example 4.1) (human, UniProt P07766 23-126); test: Fortebio (BLI), antibody on protein A sensor, CD3E diluted from 100 nM
# T2 construct: extracellular domain
# [2] = target: T1, monkey CD3E protein (Examples 4.2 and 7); test: ELISA on monkey CD3E
# [3] = target: T3, human CD3 on Jurkat cells (human CD3+ cell line) (human, UniProt P07766 23-207); test: flow cytometry on Jurkat cells, anti hFC-APC detection
# T3 construct: whole, on cells; Also used for the T cells of human PBMC in the CD69 assays; also called human CD3 positive cells; CD3 on T cells of PBMC
# [4] = target: T1, monkey CD3E protein (Examples 4.2 and 7); test: ELISA
# T2 sequence (P07766 23-126): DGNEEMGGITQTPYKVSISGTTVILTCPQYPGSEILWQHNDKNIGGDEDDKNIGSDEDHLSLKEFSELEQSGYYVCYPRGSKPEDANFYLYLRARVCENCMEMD
# T3 sequence (P07766 23-207): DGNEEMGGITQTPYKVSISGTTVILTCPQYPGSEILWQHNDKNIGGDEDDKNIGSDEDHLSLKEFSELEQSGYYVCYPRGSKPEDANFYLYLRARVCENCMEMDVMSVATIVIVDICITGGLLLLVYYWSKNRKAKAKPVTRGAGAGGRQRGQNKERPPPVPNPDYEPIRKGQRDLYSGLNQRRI
Binder,Kd [1],koff [1],kon [1],EC50 [2],EC50 [3],binding result [4]
B1,0.97 nM,0.000604 s⁻¹,621000 M⁻¹ s⁻¹,0.375 µg/mL,0.023 µg/mL,–
B2,–,–,–,–,–,no binding
